Source: paper PMC12014896 (2025)
Where a chain is given by its changes, count along the chain named.

B1: COVIC-260 (antibody, V domains shown)
VH: QVQLQESGPGLVKPSETLSLTCSVSGDSISSSDYSWGWIRQPPGKGLEWIGTIYYIKNTYYNPSLRSRVTLSVDTSKNLFSLKLSSVTAADTAVYYCARERPPFDVVVVPAARPYNWFDPWGLGTLVIVSS
VL: QSVLMQPPSVSGAPGQRVTISCTGSSSNIGAGYDVHWYQQLPGTAPKLLIYGNNNRPSGVPDRFSGSKSGTSASLAITGLQADDEADYYCQSYDSSLSGSKVFGGGTKLTVLG
B2: COVIC-157 (antibody, V domains shown)
VH: EVQLVESGGGLIQPGGSLRLSCAASGFTVSSNYMNWVRQAPGKGLEWVSVIYSGGSTYYADSVKGRFTISRDNSKNTLYLQMNSLRTEDTAVYYCARDLVAYGMDVWGQGTTVTVSS
VL: DIQLTQSPSFLSASVGDRVTITCWASQGISSYLAWYQQKPGKAPKVLIYAASTLQSGVPSRFSGSGSGTEFTLTISSLQPEDFATYYCQLLNSNPLTFGGGTKVEIKR
B3: COVIC-267 (antibody, V domains shown)
VH: EVQLVESGGGLVQPGGSLRLSCTVSGFSLSSYAMSWVRQAPGKGLEWIGIIGNSGNTYYASWAKGRFTISRDNSKNTLYLQMNSLRAEDTAVYYCARNWDPDSYEYTYATNSFDPWGQGTLVTVSS
VL: DIQMTQSPSSLSASVGDRVTITCQASESISSYLAWYQQKPGKAPKLLIYRASTLESGVPSRFSGSGSGTDFTLTISSLQPEDFATYYCQCTYGSSSSGSYGNAFGGGTKVEIK
B4: COVIC-361 (antibody, V domains shown)
VH: EVQLVESGGGLVQPGGSLRLSCKASGISVAPHAVTWVRQAPGKGLEWIGVIASNADTYYASWAKGRFTISRDNSKNTLYLQMNSLRAEDTAVYYCARHPGSAGYGYTYYYAMDPWGQGTLVTVSS
VL: DIQMTQSPSSLSASVGDRVTITCQASQDVKYAINWYQQKPGKAPKLLIYGTSSRGEGVPSRFSGSGSGTDYTLTISSLQPEDFATYYCQQGYVVSIFFGGGTKVEIK
B5: COVIC-298 (antibody, V domains shown)
VH: EVQLVQSGAEVKKPGESLKISCQGSGFSFSNYWIGWVRQMPGKGLEWMGIIYPDDSDTRYSPSFQGQVTISADKSISTAFLQWSSLKASDTAMYYCATRTGWTNDAFDIWGQGTMVTVSS
VL: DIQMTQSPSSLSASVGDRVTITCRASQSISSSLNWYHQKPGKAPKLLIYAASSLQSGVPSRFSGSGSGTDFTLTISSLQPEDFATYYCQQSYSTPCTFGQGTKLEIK
B6: COVIC-96 (antibody, V domains shown)
VH: QVQLVQSGAEVKKPGSSVKVSCKASGGTFSTSTISWVRQAPGQGLEWMGGIIPLFGSPNYAQKFQGRVTITADESTSTAYMELSSLRFEDTAVYYCARLGQWDLLPRWGQGTLVTVSS
VL: EIVLTQSPGTLSLSPGERATLSCRASQSVSSSYLAWYQQKPGQAPRLLIYGASSRASGTPDRFSGRGSGTDFTLTISRLEPEDFAVYYCQQYGSSYTFGQGTKLEIK
B7: COVIC-94 (antibody, V domains shown)
VH: EVQLVESGGGLVQPGGSLRLSCAASGFTFSPSWMGWFRQAPGKEREFVATINEYGGRNYADSVKGRFTISADNSKNTAYLQMNSLKPEDTAVYYCARVDRDFDYWGQGTLVTVSS
B8: COVIC-259 (antibody, V domains shown)
VH: EVQLVESGGGVVQPGRSLRLSCAASGFTFSSYAMHWVRQAPGKGLEWVAVLSYDGSNKYNADSVKGRFTISRDNSKNTLYLQMNSLRVEDTAMYYCARDGVSVTMVRGVIGPLCDYWGQGTLVTVSS
VL: not shown
B9: COVIC-301 (antibody, V domains shown)
VH: EVQLVESGGGLIQPGGSLRLSCAASGVTVSSNYMSWVRQAPGKGLEWVSIIYPGGSRFYADSVKGRFTISRDNSKNTLYLQMNSLRAEDTAVYYCAREVRGWLDPWGQGTLVTVSS
VL: DVVMTQSPSFLSASVGDRVTITCRASQGISNYLAWYQQKPGKAPKLLIYASSTLQSGVPSRFSGSGSGTEFTLTISSLQPEDFATYYCQHLNSYPHFGQGTRLEIKR
B10: COVIC-56 (antibody)
chain 1: not shown
chain 2: QVQLQESGGGLVQAGGSLRLSCAASGRTFSEYAMGWFRQAPGKEREFVATISWSGGSTYYTDSVKGRFTISRDNAKNTVYLQMNSLKPDDTAVYYCAAAGLGTVVSEWDYDYDYWGQGTQVTVSSGGGGSGGGGSKRTVAAPSVFIFPPSDEQLKSGTASVVCLLNNFYPREAKVQWKVDNALQSGNSQESVTEQDSKDSTYSLSSTLTLSKADYEKHKVYACEVTHQGLSSPVTKSFNRGEC
B11: COVIC-148 (antibody, V domains shown)
VH: QVQLVQSGAEVKKPGASVKVSCKASGYTFTSYDINWVRQATGQGLEWMGWMNPNSGNTGYAQKFQGRVTMTRDTSINTAYMELSSLRSEDTAVYFCARGGRYCSDVTCYSGEPFDYWGQGTLVTVSS
VL: EIMLTQSPDFQSVTPKEKVTITCRASQSIGSSLHWYQQKPDQSPKLLIKFASQSISGVPSRFSGSGSGTDFTLTINSLEAEDAAAYYCHQSSSLPHTFGPGTKVEIKR
B12: COVIC-300 (antibody, V domains shown)
VH: EVQLVESGGGLIQPGGSLRLSCAASGFIVSSNYMSWVRQAPGKGLEWVSVIYSGGITYFADSVKGRFTISRDISKNTLYLQMNSLRAEDTAVYYCARDRRLPHYYYGLDVWGQGTTVTVSS
VL: QSVLTQPASVSGSPGQSITISCTGTSSDVGGYNYVSWYQQHPGKAPTLIIYEVTSRPSGVSNRFSGSKSGNTASLTISGLQAEDEADYYCSSYTTSNTLGGVFGTGTKVTVL
B13: COVIC-150 (antibody, V domains shown)
VH: B2 VH with F27V, N35S, Y58F, T87A, V100S, A101Y
VL: B2 VL with V46L, R61K, L90Q, N94Y, L96S, T97S, G100Q, V104L
B14: COVIC-338 (antibody, V domains shown)
VH: EVQLVESGGGLVQPGRSLRLSCAASGLTFEDYAMHWVRQPPGKGLEWVSGVSWNSGTIGYADSVKGRFTISRDNAKNSLYLHMRSLGAEDTAMYYCAKDMGGRFSFFSLENDAFDIWGQGTMVIVSS
VL: SYELTQPPSVSVSPGQTARITCSGDALPKQSTYWYQQKPGQAPVLVIYKDIERPSGIPERFSGSSSGTTVTLTISGVQAEDEADYYCQSADSSDTYVFGTGTKVTVL
B15: COVIC-335 (antibody, V domains shown)
VH: QVQLVESGGGVVQPGRSLRLSCAASGFTFSRYGMHWVRQAPGKGLEWVALISSGGSNKYYADSVKGRFTISRDNSKNTLYLEMNSLRAEDTAVYYCAKDAIYDYIWGAYRENWFDPWGQGTLVTVSS
VL: DIQMTQSPSSLSASVGDRVTITCRASQSISNYLNWYQQKPGKAPNLLIYAASSLQSGVPSRFSGSGSGTDFTLTISSLQPEDFATYYCQQTSSPPLTFGQGTKVEIK
B16: COVIC-97 (antibody, V domains shown)
VH: EVQLVESGPEVKKPGTSVKVPCKASGFTFTSSAVQWVRQARGQRLEWIGWIVVGSGNTNYAQKFQERVTITRDMSTSTAYMELSSLRSEDTAVYYCAAPSCSGGRCYDGFDIWGQGTMVTVSS
VL: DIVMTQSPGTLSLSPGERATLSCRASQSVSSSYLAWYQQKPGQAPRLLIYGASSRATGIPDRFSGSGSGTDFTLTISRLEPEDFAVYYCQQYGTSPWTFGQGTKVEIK
B17: COVIC-304 (antibody, V domains shown)
VH: QVQLQQWGAGLLKPSETLSLKCAVYGGSFSGYYWGWIRQSTGKGLEWIGEINRSGSTNYNPSLKSRVTISVDTSKNQFSLKLSSVTAADTAVYYCARGGARYYYGSGSYRSTPRPYYFDYWGQGTLVTVSS
VL: SYELTQPPSVSVAPGETARITCGGDNIGRRHVHWYQQKPGQAPVLVIYDDSDRPSGIPDRFSGSNSGNTATLTIGRVEAGDEADYYCQVWGSSNDPHVFGTGTKLTVLG

Molecular target: SARS-CoV-2 spike RBD (Wuhan-Hu-1) (Severe acute respiratory syndrome …, UniProt P0DTC2)
Experiment: SPR

| Binder | Kd [nM] |
| --- | --- |
| B1 | 0.0696 |
| B2 | 6.65 |
| B3 | 1.95 |
| B4 | 0.0241 |
| B5 | 0.629 |
| B6 | 92.2 |
| B7 | 5.62 |
| B8 | 2.1 |
| B9 | 1.55 |
| B10 | 94.2 |
| B11 | 1.85 |
| B12 | 1.13 |
| B13 | 141 |
| B14 | 0.00664 |
| B15 | 9 |
| B16 | 4.96 |
| B17 | 197 |
